Experimental data published in US20190359722A1 (TOYO UNIVERSITY, published 2019).

Biological target: T1, full-length human EPHA2 expressed on 293T cells (pcDNA-DEST40-EPHA2) (human, UniProt P29317 24-976)
T1 construct: The stop codon was removed before transfer into pcDNA-DEST40; also called EPHA2-expressing 293T cells
Experiment: flow cytometry, hybridoma supernatant on EPHA2-transfected 293T cells
Experimental: 293T cells were seeded at a density of 5×10⁴ cells/cm² on a collagen type I-coated flask (IWAKI), and were then cultured in DMEM supplemented with 10% FBS at 37° C. in 5% CO₂ under a humidified atmosphere overnight. On the following day, the 293T cells were transfected with each of pcDNA-DEST40-EPHA2 and pcDNA-DEST40-ERBB2 (negative control), using Lipofectamine 2000 (Invitrogen, Thermo Fisher Scientific), and thereafter, the resulting cells were further cultured at 37° C. in 5% CO₂ under a humidified atmosphere overnight. On the following day, the transfected cells were treated with trypsin, and were then washed with DMEM supplemented with 10% FBS. The resulting cells were suspended in 5% FBS-containing PBS. These cells were used in Cell-ELISA and flow cytometric analysis.
In order to eliminate false-positive results in the Cell-ELISA, the specific binding ability of antibodies generated by the hybridomas that had been determined to be positive in the Cell-ELISA was confirmed by flow cytometry. The cells prepared in the above 1)-6-1 were mixed with a culture supernatant of the hybridomas, and the obtained mixture was then incubated at 4° C. for 1 hour. […]

T1 sequence (P29317 24-976 limits assumed): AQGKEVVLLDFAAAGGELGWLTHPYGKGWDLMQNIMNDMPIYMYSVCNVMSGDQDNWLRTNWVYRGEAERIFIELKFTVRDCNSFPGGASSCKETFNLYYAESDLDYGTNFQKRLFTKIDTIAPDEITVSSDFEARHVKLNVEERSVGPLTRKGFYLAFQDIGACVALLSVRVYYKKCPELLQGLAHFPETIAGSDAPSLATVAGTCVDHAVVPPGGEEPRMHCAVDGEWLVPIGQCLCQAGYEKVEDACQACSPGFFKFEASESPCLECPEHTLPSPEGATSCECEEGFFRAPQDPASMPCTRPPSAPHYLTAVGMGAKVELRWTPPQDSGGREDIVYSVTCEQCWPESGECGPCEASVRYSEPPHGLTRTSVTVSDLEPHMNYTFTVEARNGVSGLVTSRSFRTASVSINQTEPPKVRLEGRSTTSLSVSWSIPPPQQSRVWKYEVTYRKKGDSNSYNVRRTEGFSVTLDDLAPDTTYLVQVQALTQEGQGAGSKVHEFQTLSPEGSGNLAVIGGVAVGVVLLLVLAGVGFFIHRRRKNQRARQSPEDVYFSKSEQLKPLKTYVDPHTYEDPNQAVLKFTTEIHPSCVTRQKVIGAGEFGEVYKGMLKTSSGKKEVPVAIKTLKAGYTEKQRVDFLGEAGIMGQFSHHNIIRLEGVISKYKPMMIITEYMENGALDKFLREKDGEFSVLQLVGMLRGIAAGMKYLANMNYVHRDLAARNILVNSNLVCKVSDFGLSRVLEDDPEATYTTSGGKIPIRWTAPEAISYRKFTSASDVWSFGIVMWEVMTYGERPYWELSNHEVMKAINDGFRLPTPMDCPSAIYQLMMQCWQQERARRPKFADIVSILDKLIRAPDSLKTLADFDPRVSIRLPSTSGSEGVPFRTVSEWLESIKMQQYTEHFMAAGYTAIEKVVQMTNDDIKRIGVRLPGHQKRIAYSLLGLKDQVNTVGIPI

binding result	Binder
binds	mouse anti-EPHA2 monoclonal antibody 57-1 (antibody, V domains shown, The variable regions were found by 5'-RACE; Used unlabeled as capture antibody and biotin-labeled as detection antibody; also called biotin-labeled antibody 57-1) VH: QIQLVQSGPELKKPGETVKISCKGSGYTFTNYGMNWVKQAPGKGLKWMAWINTDTGEPIFVEEFKGRFAFSLETSASTAYLQINNLTNEDTATYFCARSMGGFANWGQGTLVTVSA VL: DIVMTQSPATLSVTPGDRVSLSCRASQNISDYLHWYQQKSHESPRLLIKYASQSISGIPSRFSGSGSGSDFTLTINSVEPEDVAMYYCQNGHTFPTFGAGTKLELKR
binds	mouse anti-EPHA2 monoclonal antibody 230-1 (antibody, V domains shown, The variable regions were found by 5'-RACE; Used unlabeled as capture antibody and biotin-labeled as detection antibody; also called biotin-labeled antibody 230-1) VH: EVQLVESGGGLVKPGGSLKLSCEASGFTFSDYYMYWVRQTPEKRLEWVATISDDGSFTHYLDSVKGRFTISRDNAQNNLYLQMSSLKSDDTAMYYCARDGYRYDRPFAYWGQGTLVTVSA VL: DIVMTQSHKFMSTSVGDRVRITCKASQDVNTAVAWYQQKPGQSPKLLIYWASTRHTGVPDRFTGSGSGTDYSLTISSVQAEDLALYYCQQHYSTPYTFGGGTKLEIKR
